The record followed here is patent US20190328766, “COMPOSITIONS AND METHODS FOR SUPPRESSING MSUT2” (United States Government As Represented By The Department …, published 2019).

For data set [1], the target named is T1, MSUT2 (ZC3H14) CCCH zinc finger domain (Homo sapiens, UniProt Q6PJT7 Q6PJT7:595-719).
T1 chain: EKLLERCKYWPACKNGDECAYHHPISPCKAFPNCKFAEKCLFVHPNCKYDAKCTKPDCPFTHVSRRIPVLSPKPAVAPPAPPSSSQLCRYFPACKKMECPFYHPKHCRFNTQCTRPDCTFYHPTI
The data set can be described thus: SPR; Biacore T200, biotin capture, from kinetics at 0.6-1 uM protein. The settings on record: tags: GST fusion (pGEX6P-1), E. coli BL21(DE3), benzonase treated; label: 5' BiotinTEG. As for the experimental part: (§1) SPR experiments were conducted on a Biacore T200 using the Biotin Capture Kit Series S following the manufacturer's instructions (GE). Biotin capture reagent was applied to the sensor chip at a flow rate of 2 μl/minute for 300 seconds. 1 nM biotinylated RNA (BiotinTEG-[…]; SEQ ID NO: 25) was captured at a flow rate of 10 μl/minute for 180 seconds. Samples were flowed across the sensor chip at 50 μl/minute for 120 seconds and the chip was regenerated for 120 seconds at a flow rate of 10 μl/minute.
On the technique in general: SPR reads the build-up and loss of mass on a sensor chip optically.

For data set [2], the target named is T2, PABPN1 (Homo sapiens, UniProt Q86U42 Q86U42:1-306).
T2 sequence: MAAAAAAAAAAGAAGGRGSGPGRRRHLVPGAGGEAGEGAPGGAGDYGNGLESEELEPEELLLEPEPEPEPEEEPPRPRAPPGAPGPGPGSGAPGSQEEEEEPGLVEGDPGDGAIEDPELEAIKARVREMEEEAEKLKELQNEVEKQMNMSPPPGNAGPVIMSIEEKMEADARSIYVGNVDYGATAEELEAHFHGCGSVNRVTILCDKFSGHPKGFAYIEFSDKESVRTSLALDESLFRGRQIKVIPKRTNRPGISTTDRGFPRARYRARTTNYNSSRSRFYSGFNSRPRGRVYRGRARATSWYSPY
The description is as above. The settings on record: tags: GST fusion (pGEX6P-1), E. coli BL21(DE3), benzonase treated; label: 5' BiotinTEG. Here is the method: as §1

Data set [3] addresses T3, GST-MSUT2 (UniProt Q6PJT7 Q6PJT7:595-719).
T3 sequence: T1 chain
Put plainly: FP; dose-dependent polarization increase. The settings on record: tags: GST fusion; label: fluorescein (FAM).

Data set [4] concerns the target T3, GST-MSUT2. The data set can be described thus: AlphaScreen; 25 mM HEPES, 100 mM NaCl, 0.04% casein, 0.2% Triton X-100, pH 7.4, room temp; inhibited by ebselen. The settings on record: tags: GST fusion; label: 5' TEG-Biotin (IDT). As for the experimental part: The steps and set up for performing the ALPHA assay for MSUT2 binding to polyA are as follows: [0229] 1. Dilutions are in assay buffer (1×PAMA final concentration). [0230] 2. Scale is for 96 well assay in PE […] ½ area plate (total volume/well is 50 μL). [0231] 3. Assays set up in low light conditions [0232] 4. Add 20 μL of diluted donor bead (10 ug/mL) to well bringing well volume to 20 μL [0233] 5. Add 10 μL diluted biotin RNA (15 nM)) bringing well volume to 30 μL [0234] 6. Add 10 μL diluted GST-MSUT2 Protein (125 nM)) bringing well volume to 40 μL [0235] 7. Incubate at room temp for 30 minutes in the dark [0236] 8. […] 9. Incubate at room temp for 60 minutes in the dark [0238] 10. Read Plate using standard AlphaAssay settings on Perkin Elmer EnSpire® Alpha microplate reader
A general note: Alpha assays give light when donor and acceptor beads are brought close together.

Consider AAAAAAAAAAAAAAA (ssRNA) [biotin-poly(A)15], for which the Kd amounted to 60 nM in data set [1] and 237 nM in data set [2].

In the case of AAAAAAAAAAAAAAA (ssRNA) [FAM-PolyA15], the binding result in data set [3] was “binds”.

Take AAAAAAAAAAAAAAAAAAAA (ssRNA) [biotin-poly(A)20]: the binding result in data set [4] is listed as “binds”.

The Kd is the concentration at which binding is half-saturated. Low readings indicate higher affinity, high ones lower affinity.
